Test results taken from the nanobody polyreactivity screen of Harvey et al. (2022).

Assay: yeast display, Sf9 membrane polyspecificity reagent, FACS + sequencing; frameworks hold sequencing errors
In short: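 Nanobodies from a synthetic yeast display library (Saccharomyces cerevisiae BJ5465), induced 36–48 hours with galactose, were stained 1 hour at 4 °C with 10% biotinylated, detergent-solubilized Sf9 membrane reagent, enriched on streptavidin microbeads, then FACS-sorted. Anti-HA (expression) and streptavidin (reagent binding) fluorescence set low and high (top ~1%) gates. Polyreactivity labels come from the gate of origin. Genes were colony-PCR amplified, MiSeq 2 × 250 sequenced and filtered by CDR length.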

Sequence	polyreactivity (PSR sort gate)
QVPLVESGVGLVQAGGSLRLSCAASGSTISYYYMGWYRQAPGKEREFVAAIRRRGSSTYYADSVKGRFTISRDNAKNTVYLQINSLKPEDTAVYYCAKRTIAGRGRQYDYWGQGTQVSVSS	high polyreactivity
QVQLVESGGGLVQAGGSLRLSCAASGSIFQVYAMGWYRQAPGKEREFVAAISYSGGGTYYADSVKGRFTISRDNAKNSVYLQMNSLKPEDTAVYYCAADVSGWEYDYWGQGTQVTVSS	low polyreactivity
QVQLVESGGGLVQAGGSLRLSCAASGITFKWNDMGWYRQAPGKEREFVAAITGSTGSTFYAGSVKGRFTISRDNAKNTVYLQMNSLKPEDTAVYYCAAGPWFYYWGQGTQVTVSS	low polyreactivity
QFQLVESGGGLVQAGGSLRLSCAASGRIFYPYAMGWYRQATGKEREFVATIRARGGDSTSYADSVKGRFTISRDNAKNTVYLQMNSLKPEDTGVYYCAALFYTYRWRYYVYHLDYWGHGTQVTVSS	low polyreactivity
QVQLVESGGGLVQAGGSLRLSCAASGSIFRYYTMGWDRQAPGKERELVAAISWSGGRTYYADSVKGRFTISRDNAKNTVYLQMNSLKPEDTAVYYCAAVRPYYYPLPTVPNLPYDYWGQGTQVTVSS	high polyreactivity
QVQLVESGGGLVQAGGSLRLSCAASGSIFVLNAMGWYRQAPGKEWELVAVISNIGGRTYYADSVKGRFTISRDNAKNTVYLQLNSLKPEDTAVYSCAAPFTSTFDYWGQVTQVTVSS	low polyreactivity
QVQLVESGGGLVQAGGSLRLSCAASGLTFKENVMGWYRQAPGKERELVAAISTGASTYYADSVKGRFTISRDNAKNTVYLQMNSLKPEDTAVYYCAKRVTRWYGYWGQGTQVTVSS	high polyreactivity
QVQLVESGGGLVQAGGSLRLSCAASGFTFLKNAMGWYRQAPGKERELVAAITGSGGSTYYADSVKGRFTISRDNAKNTVYLQMNSLKPEDTAVYYCNVRRGLRAYEYWGQGTQVTVSS	high polyreactivity
LVQQVESGGGLVQAVGTLRISCAASGQILYSYAMGWYRQAPGKERELVAAITGGVSTNYADSVKGRFTISRDNAKNTVYLQMNSLKPEDTAVYYCNVELWEYSYIDEYWGQGTQLTVSS	low polyreactivity
QVQLGESGGGLVQAGGSLRLSCAASGFTFQEYAMGWYRQAPGKDRELVAAITSGTTTNYADSVKGRFTISRDNAKNTVYLQMNSLKPEDTAVYYCNVRRQSGRYRVYEYDYWGQGTQVTVSS	low polyreactivity
QVQLQESGGGLVQAGGSLRRSCAASGSIFYHWAMGWYRQTPGKERELVASITSGGNTNYADSVKGRFTISRDNAKNTVYLPMDRLKPEDTAVYYCAADGYYGAWDLEYYYWGQGTQVTVSS	low polyreactivity
QVQIVESGGGLVQAGGSLRLSCAASGSIFKYYAMGSYRQAPVKERELVAAISSGGSTKYADSVKARFTISRDNEKNTVYLHMTRLIPEDTAVYYCAARDPSRHARRAYDYWGQGTQVTVSS	low polyreactivity
QVQLVESGGGLVQAGGSLRLSCGASGITFVRYAMGWYRQAPGKERELVAAITTSGGSTYYADSVKGRFTISRDNAKNTVYLQMNSLKPEDTAVYYCAARANAASGTFKYWGQGTQVTVSS	high polyreactivity
QVQLVESGVGLVQAGGSLRLICAASGFTFAKYAMGWYRQAPGKERELVAAISRSAGSTYYADSVKGRFTISRDYAKNTVYLQMNSLIPDDTAVYYCAADPLIYDDYYWGQGSQVTVSS	high polyreactivity
QVQLVESGGGLVQAGGSLRLSCAASGRTFRKNAMGWYRQAPGKERELVAAISDTGGSTYYADSVKGRFTISRDNAKNTVYFQMNSLKTEDTAVYYCAATVRYRGFYYWGQGTQVTVSS	high polyreactivity
QVQLVESGGGLVQAGGSLRLSCAASGSIFVIYAMGWYRQAPGKERELVAAITSGGNTTYADSVKGRFTISRDNAKNTVYLQMNSLKPEDTAVYYCAAYSYYTGDQYSYDYWGQGTQVTVSS	low polyreactivity
QVQLVESGGGLVQAGGSLRLSCAASGFTLANYAMGWYRQAPGKERELVAAIDYSGGGTYYADSVKGRFTISRDNAKNTVYFQMNSLKPEDTAVYYCAARRWSYYSAKYDYWGQGTQVTVSS	low polyreactivity
QVQLVESAGGLVQAGGSLRLSCAASGRIFWGNAMGWYRQAPGKERELVAAITRRGGTKFYADSVKGRFTISRDNAKNTVYLQMNSLIPEDTAVYYCAARRYGQYDGYDSWGQGTQVTVSS	high polyreactivity
QVQLVDSVGGLVQAGGSLRISCAASGSIFGFYAMGWYRQSPGKERELVAAISQRGGNTYYADSVKRRFTISRDNAKNTVYLQMNSLKPEDTAFYFCASDKHPYKRHWYYTYDYWGLGTQVTVSS	high polyreactivity
QVQLVESGGGLVQAGGSLRLSCAASGRTFTGNVMGWYRQAPGKERELVAAISRSGTSTYYADSVKGRFTISRDNAKNTVYLQMNSLKPEDTAVYYCAARRTAGYRSGEYDYWGQGTQVTVSS	high polyreactivity
QVQLVESGGGLVQAGGSLRLSCAASGFTFARYAMGWYRQAPGKERELVASISGSGGSTYYADSVKGRFTISRDNAKNTVYLQMNSLKPEDTAVYYCAADTWYGFDWGQGTQVTVSS	high polyreactivity
QVQLVESGGGLVQAGGSLRLSCAASGFIFAVNAMGWYRQAPGKERELVAAISGRGGRTYYADSVKGRFTISRDYAKNTVYLQMNSLKPEDTAVYYCAARSYQYSYSFYWGQGTQVTVSS	high polyreactivity

Sequence	polyreactivity (PSR sort gate)
QVQLVESGGGLVQAGGSLRLSCAASGGTFSRNAMGWYRQAPGKERELVAAINSSGVSTSYADSVKGRFTISRDNAKNTVYLQMNSLKPEDTAVYYCADETSSAEVDYWGQGTQVTVSS	low polyreactivity
QVQLVESGGGLVQAGGSLRLSCAASGLPFRFNALGWNRQAPGKERELVARISAGGGSTYYADSVKGRFTISRDNAKNTVYLQMNSLKPEDTAVYYCAVDKSTEFSSGPHVAGDDSWGQGTQVTVSS	low polyreactivity
QVQLVESGGGLVQAGGSLRISCAASGRTFDHYAMGWYRPAPGKERELVAAISFSGGSTYYADSVKGRLTISRDNAKNTVYLQMNRLKPEDTAVYYCAADYAYWLSGYDYWGQGTQVTVSS	low polyreactivity
QVQLVESGGGLVQAGGSLRLSCAASGRTFSSNAMGWYRQAPGKERELVAAITYTGTSTYYADSVKGRFTISRDYAKNTVYLQMNSLKPEDTAVYYCAALYVQGTHTYGYWGQGTQVTVSS	high polyreactivity
QVQLVESGGGLVQAGGSLRLSCAASGRTVYANAMGWYRQAPGKERELVAAISTGGDGTYYADSVKGRFTISRDNAKNPVYLQMNSQKPEDTAVYYCAVRHRASGMLYDYWGQGTQVTVSS	low polyreactivity
QVQLVESGGGLVQAGGSLRLSCAASGRTFTIYARGWYRQAPGKERELVAAITSGGSTYYADSVKGRFTISRDNAKNTVYLQMNSLKPEDTAVYYCDRGYAVSLVSRYDYWGQGTQVTVSS	low polyreactivity
QVQLVESWGGLVQAGGSLRLSCAASGSIFGENAMGWYREAPRKEMELVAAITSGGSTDYADSVKGRFTISRDNAKNTVYLQMNSPKVEDTAVYYCAASGRVGPGYCYDSWGQGTQVTVSS	low polyreactivity
QVQLVESGGGLVQAGGSLRLSCAASGRIFQYYTMGWYRQAPGKERELVAAITYSGGDTRYADSVKGRFTISRDNAKNTVYLQMNSLKPEDTAVYYCAAHYFHQYQYGVWTYGYWGHGTQVTVSS	low polyreactivity
QVQLVESGGGLVQAGGSLRLSCAASGSTSDENAMGWYRQAPGKERELVASITVSGGSTSYADSVKGRFTISRDNAKNTVYLQMNSLKPEDTAVYYCNTDFGQAHTLSWYEDMDYWGQGTQVTVSS	low polyreactivity
QVQLVESGGGLVQAGGSLRLSCAASGFIFHRYAMGWYRQAPGKERELVAAITGRGSSTYYADSVKGRFTISRDNAKNTVYLQMNCLKPEDTGVYYCNAYRYQVYDTGWFGYWGQGTQVTVSS	high polyreactivity
QVQLVESGGGLVQAGGSLRLSCDASGFTIYHYAIGCYRQATGKERELVDANSRSGGSTYYADSVKGRFTISRDNAQNTFYLQMNSLKPEDTAVYYCAKVLRAKNSFDYWGQGTQVTVSS	high polyreactivity
QVQIVESGGGLVQAGGSLRLSCAASGRTVGYNPMGWYRQAPGKETELVAVIRSGGSTYYADSVKGRFTISRDNAQYSVYLQLHSLIPEDSEVYYCAATGLYNVTSPYSYKYDYWGQCTQVTVSS	low polyreactivity
QVQLVESGGGLVQAGGSLRLSCAASGRIFPTYAMGWYRQAPGKERELVAAITWRGGRTYYADSVKGRFTISRDNAKNTVYLQMNSLKPEDTAVYYCAAGWLTRSYEYDYWGQGTQVTVSS	high polyreactivity
QVQHVESGRGLVPAGGSLRLSCAASGSTFNLNAMGWYRQAPGKERELVAAISWRGDSTSYADSVKGRFTISRDNAKNTVYLQMNSLKPEDTAVYFCATAHDSAFYRYWYVPSEYNYWGQGTQVTVSS	low polyreactivity
QVQLVESGGGLVQAGGSLRLSCAASGFILGYYAMGWYRQAPGKERELVAAISWNGGRTYYADSVKGRFTISRDNAKNTVYLQMNSLKPEDTAVYYCAVVATVIPWPYDYWGQGTQVTVSS	high polyreactivity
QVQLVESGGGLVQAGGSLRLSCAASGRIFGYYAMGWYRQAPGKERELVAAISWSGGSTFYADSVKGRFTISRDYAKNTVYLQMISLKPEDTAVYYCNKDHLVYPSEFYYWGQGTQVTVSS	low polyreactivity
QVQLVESGGGLVQAGGNLRLSCAASGLIFWYNAMGWYRQAPGKERELVAAINWSGDSTYYADSVKGRFTISRDNAKNTVYLQMNSLKPEDTAVYYCAATEQSYGYDYWGQGTQVTVSS	low polyreactivity
QVQLVESGGGLVQAGGSLRLSCAASGIIFRGYVMGWYRQAPGKERELVAAISTSGGRTSYADSVKGRFTISRDNAKNTVYLQMNSLKPEDTAVYYCAARPLYSYSQWGYGYWGQGTQVTVSS	high polyreactivity
QVQLVESGGGLVQAGGSLRLSCAASGNIFGYYVMGWYRQAPGKERELVAGISSGDSTDYADSVKGRFTISRDNAKNTVYLQMNSLKPEDTAVYYCNADWNPTERWFYWYTPLGYDYWGQGTQVTVSS	low polyreactivity
QVQLVESGGGLVQAGGSLRLSCAASGSIFQPYAMGWYRQAPGKERELVAAINGRGGSTHYADSVKGRFTISRDNAKNTVYLQMNSLKPEDTAVYYCAARYYRDYRWYTYAYDYWGQGTQVTVSS	high polyreactivity
QVQLVESGGGLVQAGGSLRLSCAASGIIFLDNAMGWYRQAPGKERELVAAITTGGITYYADSVKGRFTISRDNAKNTVYLQMNSLKPEDTAVYYCAADNEWPRYDYWGQGTQVTVSS	low polyreactivity
